Source: paper PMC9348789 (2022)

B1: CXCL9 (ligand)
chain: TPVVRKGRCSCISTNQGTIHLQSLKDLKQFAPSPSCEKIEIIATLKNGVQTCLNPDSADVKELIKKWEKQVSQKKKQKNGKKHQKKKVLKVRKSQRSRQKKTT
B2: CXCL11 (ligand)
chain: FPMFKRGRCLCIGPGVKAVKVADIEKASIMYPSNNCDKIEVIITLKENKGQRCLNPKSKQARLIIKKVERKNF
B3: CCL11 (ligand)
chain: not shown
B4: CXCL4 (ligand)
chain: EAEEDGDLQCLCVKTTSQVRPRHITSLEVIKAGPHCPTAQLIATLKNGRKICLDLQAPLYKKIIKKLLES
B5: CCL21 (ligand)
chain: SDGGAQDCCLKYSQRKIPAKVVRSYRKQEPSLGCSIPAILFLPRKRSQAELCADPKELWVQQLMQHLDKTPSPQKPAQGCRKDRGASKTGKKGKGSKGCKRTERSQTPKGP
B6: CCL5 (ligand)
chain: SPYSSDTTPCCFAYIARPLPRAHIKEYFYTSGKCSNPAVVFVTRKNRQVCANPEKKWVREYINSLEMS
B7: CXCL14 (ligand)
chain: SKCKCSRKGPKIRYSDVKKLEMKPKYPHCEEKMVIITTKSVSRYRGQEHCLHPKLQSTKRFIKWYNAWNEKRRVYEE
B8: CCL28 (ligand)
chain: SEAILPIASSCCTEVSHHISRRLLERVNMCRIQRADGDCDLAAVILHVKRRRICVSPHNHTVKQWMKVQAAKKNGKGNVCHRKKHHGKRNSNRAHQGKHETYGHKTPY
B9: CCL26 (ligand)
chain: TRGSDISKTCCFQYSHKPLPWTWVRSYEFTSNSCSQRAVIFTTKRGKKVCTHPRKKWVQKYISLLKTPKQL

Target: T1, SARS-CoV-2 nucleocapsid protein (N) (SARS-CoV-2, UniProt P0DTC9 1-419)
Assay: BLI

**Q.** How did the Kd turn out when B1 was run?
**A.** 12 nM

**Q.** How did the Kd turn out when B2 was run?
**A.** 130 nM

**Q.** How did the Kd turn out when B3 was run?
**A.** 72 nM

**Q.** How did the Kd turn out when B4 was run?
**A.** 170 nM

**Q.** Which Kd does the source give for B5 here?
**A.** 14 nM

**Q.** Which Kd does the source give for B6 here?
**A.** 10 nM

**Q.** How did the Kd turn out when B7 was run?
**A.** 45 nM

**Q.** B8 was tested. Which Kd did it give?
**A.** 22 nM

**Q.** For B9, which Kd is on record?
**A.** 26 nM

Target: T1, SARS-CoV-2 nucleocapsid protein (N)
Assay: BLI
Remark: another data set of the same source

**Q.** With B1 as the binder, how does the koff read?
**A.** 0.00085 s⁻¹

**Q.** B2 was tested. Which koff did it give?
**A.** 0.0033 s⁻¹

**Q.** B3 was tested. Which koff did it give?
**A.** 0.0045 s⁻¹

**Q.** For B4, which koff is on record?
**A.** 0.00053 s⁻¹

**Q.** B5 was tested. Which koff did it give?
**A.** 0.0014 s⁻¹

**Q.** Which koff does the source give for B6 here?
**A.** 0.00019 s⁻¹

**Q.** How did the koff turn out when B7 was run?
**A.** 0.0019 s⁻¹

**Q.** With B8 as the binder, how does the koff read?
**A.** 0.00087 s⁻¹

**Q.** With B9 as the binder, how does the koff read?
**A.** 0.00093 s⁻¹
